Experimental data taken from the supplement of paper PMC9112550, “Optimization of the antimicrobial peptide Bac7 by deep mutational scanning” (BMC Biology, 2022).
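Note: peptides expressed intracellularly from a pBAD plasmid library in pooled LB shake-flask culture, induced with 0.3% L-arabinose, DNA abundance read by NGS, three biological replicates, DESeq2 with apeglm shrinkage.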

What follows are sequences tested on Escherichia coli TOP10 (assay: shrunken log2 fold change of peptide-encoding DNA abundance (4.5 h post-induction vs induction); higher = less antimicrobial activity (less host growth inhibition)). Details: time post-induction: 4.5 h; library: site-saturation at positions 5, 18, 19, 20.
RRIRPRPPRLPRPRPRPAEQPRP was tested, and the “shrunken log2 fold change” value was 0.411.
In the case of RRIRNRPPRLPRPRPRPRWQPRP, the “shrunken log2 fold change” value is reported as -0.00911.
For RRIRARPPRLPRPRPRPVRGPRP, the “shrunken log2 fold change” value was 0.945.
For RRIRNRPPRLPRPRPRPKQPPRP, the “shrunken log2 fold change” value was 0.00591.
With RRIRDRPPRLPRPRPRPQMCPRP the “shrunken log2 fold change” value was -0.183.
In the case of RRIRKRPPRLPRPRPRPQQTPRP, the “shrunken log2 fold change” value is reported as -0.0533.
RRIRSRPPRLPRPRPRPFGLPRP was tested, and the “shrunken log2 fold change” value was -0.0988.
RRIRLRPPRLPRPRPRPWGKPRP was tested, and the “shrunken log2 fold change” value was -0.0201.
RRIRHRPPRLPRPRPRPDYQPRP was tested, and the “shrunken log2 fold change” value was -0.0951.
With RRIRARPPRLPRPRPRPYQYPRP the “shrunken log2 fold change” value was -0.352.
RRIRWRPPRLPRPRPRPNWRPRP was tested, and the “shrunken log2 fold change” value was 0.184.
RRIRGRPPRLPRPRPRPSGLPRP was tested, and the “shrunken log2 fold change” value was 0.3.
With RRIRPRPPRLPRPRPRPDYEPRP the “shrunken log2 fold change” value was -0.136.
For RRIRYRPPRLPRPRPRPASIPRP, the “shrunken log2 fold change” value was -0.229.
For RRIRARPPRLPRPRPRPGPKPRP, the “shrunken log2 fold change” value was 0.421.
In the case of RRIRHRPPRLPRPRPRPLTEPRP, the “shrunken log2 fold change” value is reported as -0.342.
With RRIRARPPRLPRPRPRPYHIPRP the “shrunken log2 fold change” value was -0.356.
For RRIRPRPPRLPRPRPRPHPRPRP, the “shrunken log2 fold change” value was 0.597.
In the case of RRIRYRPPRLPRPRPRPRIKPRP, the “shrunken log2 fold change” value is reported as -0.502.
With RRIRWRPPRLPRPRPRPWTVPRP the “shrunken log2 fold change” value was -0.0123.
In the case of RRIRQRPPRLPRPRPRPSCPPRP, the “shrunken log2 fold change” value is reported as -0.037.
RRIRFRPPRLPRPRPRPMIGPRP was tested, and the “shrunken log2 fold change” value was 0.0266.
For RRIRARPPRLPRPRPRPAVHPRP, the “shrunken log2 fold change” value was 0.175.
In the case of RRIRFRPPRLPRPRPRPETLPRP, the “shrunken log2 fold change” value is reported as 0.0591.
With RRIRVRPPRLPRPRPRPHIMPRP the “shrunken log2 fold change” value was -0.339.
RRIRARPPRLPRPRPRPPLKPRP was tested, and the “shrunken log2 fold change” value was 0.33.
With RRIRERPPRLPRPRPRPLPCPRP the “shrunken log2 fold change” value was -0.315.
RRIRWRPPRLPRPRPRPVLFPRP was tested, and the “shrunken log2 fold change” value was -0.0589.
With RRIRCRPPRLPRPRPRPVKEPRP the “shrunken log2 fold change” value was -0.0734.
In the case of RRIRKRPPRLPRPRPRPMVMPRP, the “shrunken log2 fold change” value is reported as 0.0746.
RRIRERPPRLPRPRPRPHVIPRP was tested, and the “shrunken log2 fold change” value was -0.133.
RRIRFRPPRLPRPRPRPLVFPRP was tested, and the “shrunken log2 fold change” value was -0.204.
RRIRQRPPRLPRPRPRPQHCPRP was tested, and the “shrunken log2 fold change” value was -0.076.
RRIRFRPPRLPRPRPRPEKMPRP was tested, and the “shrunken log2 fold change” value was 0.0434.
With RRIRPRPPRLPRPRPRPVIYPRP the “shrunken log2 fold change” value was -0.063.
For RRIRHRPPRLPRPRPRPKNSPRP, the “shrunken log2 fold change” value was -0.487.
For RRIRERPPRLPRPRPRPWMQPRP, the “shrunken log2 fold change” value was -0.327.
In the case of RRIRCRPPRLPRPRPRPLAYPRP, the “shrunken log2 fold change” value is reported as -0.616.
RRIRYRPPRLPRPRPRPYKLPRP was tested, and the “shrunken log2 fold change” value was -0.491.
With RRIRYRPPRLPRPRPRPTIFPRP the “shrunken log2 fold change” value was -0.412.
For RRIRGRPPRLPRPRPRPPFGPRP, the “shrunken log2 fold change” value was 0.738.
With RRIRNRPPRLPRPRPRPFIQPRP the “shrunken log2 fold change” value was -0.737.
With RRIRDRPPRLPRPRPRPPSHPRP the “shrunken log2 fold change” value was -0.203.
In the case of RRIRFRPPRLPRPRPRPFSAPRP, the “shrunken log2 fold change” value is reported as -0.274.
In the case of RRIRQRPPRLPRPRPRPQRTPRP, the “shrunken log2 fold change” value is reported as 0.0128.
In the case of RRIRKRPPRLPRPRPRPQNDPRP, the “shrunken log2 fold change” value is reported as -0.0578.
RRIRTRPPRLPRPRPRPKAGPRP was tested, and the “shrunken log2 fold change” value was 0.768.
In the case of RRIRWRPPRLPRPRPRPFICPRP, the “shrunken log2 fold change” value is reported as -0.309.
In the case of RRIRVRPPRLPRPRPRPCAVPRP, the “shrunken log2 fold change” value is reported as 0.218.
With RRIRKRPPRLPRPRPRPDERPRP the “shrunken log2 fold change” value was -0.00101.
For RRIRPRPPRLPRPRPRPTEKPRP, the “shrunken log2 fold change” value was 0.0615.
RRIRQRPPRLPRPRPRPHQLPRP was tested, and the “shrunken log2 fold change” value was 0.142.
With RRIRFRPPRLPRPRPRPQQSPRP the “shrunken log2 fold change” value was -0.0219.
With RRIRVRPPRLPRPRPRPQTWPRP the “shrunken log2 fold change” value was -0.148.
For RRIRLRPPRLPRPRPRPYPDPRP, the “shrunken log2 fold change” value was -0.598.
With RRIRNRPPRLPRPRPRPPCQPRP the “shrunken log2 fold change” value was -0.294.
RRIRYRPPRLPRPRPRPCVYPRP was tested, and the “shrunken log2 fold change” value was -0.197.
RRIRNRPPRLPRPRPRPNRTPRP was tested, and the “shrunken log2 fold change” value was -0.0201.
With RRIRCRPPRLPRPRPRPLGNPRP the “shrunken log2 fold change” value was -0.229.
RRIRYRPPRLPRPRPRPGYWPRP was tested, and the “shrunken log2 fold change” value was -0.154.
In the case of RRIRRRPPRLPRPRPRPWNQPRP, the “shrunken log2 fold change” value is reported as 0.0251.
In the case of RRIRRRPPRLPRPRPRPVWHPRP, the “shrunken log2 fold change” value is reported as 0.278.
With RRIRFRPPRLPRPRPRPKSYPRP the “shrunken log2 fold change” value was -0.201.
In the case of RRIRWRPPRLPRPRPRPDPWPRP, the “shrunken log2 fold change” value is reported as 0.0147.
With RRIRSRPPRLPRPRPRPTMTPRP the “shrunken log2 fold change” value was 0.391.
With RRIRYRPPRLPRPRPRPQWLPRP the “shrunken log2 fold change” value was -0.0323.
For RRIRQRPPRLPRPRPRPQTKPRP, the “shrunken log2 fold change” value was -0.133.
RRIRVRPPRLPRPRPRPTRIPRP was tested, and the “shrunken log2 fold change” value was 0.108.
In the case of RRIRIRPPRLPRPRPRPVQHPRP, the “shrunken log2 fold change” value is reported as -0.38.
For RRIRARPPRLPRPRPRPHGLPRP, the “shrunken log2 fold change” value was 0.268.
RRIRPRPPRLPRPRPRPQEYPRP was tested, and the “shrunken log2 fold change” value was -0.151.
For RRIRTRPPRLPRPRPRPRDFPRP, the “shrunken log2 fold change” value was 0.0849.
In the case of RRIRQRPPRLPRPRPRPRNQPRP, the “shrunken log2 fold change” value is reported as -0.329.
RRIRERPPRLPRPRPRPFSHPRP was tested, and the “shrunken log2 fold change” value was -0.153.
For RRIRKRPPRLPRPRPRPLIHPRP, the “shrunken log2 fold change” value was 1.09.
